B1: LINE1-mini (parent)
chain: GGCAGAGCUCAACACAGCGUGGCAAAGUGGCUGUGGCUAGACUGCC

This data set covers variants of B1. As to the kind of experiment: self-cleavage, relative activity (ratio to wild type); higher = more cleavage; in vitro, sequencing; the parent is a self-cleaving ribozyme.
Turning to U9G G21C, the self-cleavage was determined as 0.08.

Turning to U9G G21A, the self-cleavage was determined as 0.13.

On to U9G G21U, for which the self-cleavage stood at 0.06.

Turning to U9C G35C, the self-cleavage is 0.04.

For the variant U9C G35A, the self-cleavage turned out to be 0.06.

As to U9C G35U, the self-cleavage came to 0.03.

Regarding U9C G29U, the self-cleavage came to 0.03.

For U9C G29A, the self-cleavage turned out to be 0.02.

U9C G29C: the self-cleavage amounted to 0.02.

Consider U9C C42G, for which the self-cleavage is 0.03.

Regarding U9C C42U, the self-cleavage was 0.04.

In the case of U9C C42A, the self-cleavage is 0.03.

As to U9G G44C, the self-cleavage was determined as 0.03.

For the variant U9G G44A, the self-cleavage amounted to 0.12.

Take U9G G44U: the self-cleavage worked out at 0.08.

Turning to C10A A41G, the self-cleavage turned out to be 0.03.

With C10A A41C, the self-cleavage is 0.04.

Consider C10A A41U, for which the self-cleavage was 0.02.

On to C10A C18A, for which the self-cleavage is 0.07.

On to C10A C18G, for which the self-cleavage amounted to 0.04.

Regarding C10A C18U, the self-cleavage turned out to be 0.07.

As for U9C C13G, the self-cleavage was 0.04.

Regarding U9C C13A, the self-cleavage was found to be 0.05.

As to U9C C13U, the self-cleavage came to 0.03.

On to C10A C37U, for which the self-cleavage worked out at 0.01.

As for C10A C37A, the self-cleavage is 0.01.

With C10A C37G, the self-cleavage stood at 0.01.

Consider C10A G33C, for which the self-cleavage was determined as 0.03.

Turning to C10A G33A, the self-cleavage was 0.04.

With C10A G33U, the self-cleavage was 0.05.

U9G A25C: the self-cleavage worked out at 0.13.

Take U9G A25G: the self-cleavage worked out at 0.06.

U9G A25U: the self-cleavage came to 0.14.

C10A U32A: the self-cleavage came out at 0.02.

On to C10A U32C, for which the self-cleavage turned out to be 0.03.

In the case of C10A U32G, the self-cleavage came out at 0.03.

As to U9G A41U, the self-cleavage was 0.14.

As to U9G A41C, the self-cleavage amounted to 0.04.

Take U9G A41G: the self-cleavage was found to be 0.08.

As for C10A A12U, the self-cleavage was found to be 0.04.

Turning to C10A A12C, the self-cleavage was determined as 0.04.

As to C10A A12G, the self-cleavage was determined as 0.02.

As to C10A A26G, the self-cleavage came out at 0.12.

Take C10A A26C: the self-cleavage was 0.04.

Regarding C10A A26U, the self-cleavage turned out to be 0.06.

On to U9C U38G, for which the self-cleavage came to 0.04.

U9C U38C: the self-cleavage came to 0.07.

Consider U9C U38A, for which the self-cleavage is 0.03.

Consider C10A C15G, for which the self-cleavage worked out at 0.04.

As to C10A C15A, the self-cleavage came to 0.04.

With C10A C15U, the self-cleavage amounted to 0.08.

As for U9C C15G, the self-cleavage was determined as 0.04.

As for U9C C15A, the self-cleavage was 0.03.

Turning to U9C C15U, the self-cleavage worked out at 0.04.

Consider C10A C31A, for which the self-cleavage was determined as 0.03.

Consider C10A C31G, for which the self-cleavage was 0.03.

Consider C10A C31U, for which the self-cleavage came out at 0.04.

Take U9C A41G: the self-cleavage was determined as 0.05.

Take U9C A41C: the self-cleavage turned out to be 0.04.

U9C A41U: the self-cleavage is 0.06.

As for U9G A14U, the self-cleavage was found to be 0.06.

Take U9G A14G: the self-cleavage stood at 0.12.

For U9G A14C, the self-cleavage was found to be 0.2.

For U9G G33U, the self-cleavage stood at 0.08.

On to U9G G33C, for which the self-cleavage was 0.05.

For U9G G33A, the self-cleavage came to 0.06.

For the variant U9C A39G, the self-cleavage was 0.02.

Regarding U9C A39C, the self-cleavage is 0.02.

Turning to U9C A39U, the self-cleavage is 0.05.

With U9C G22A, the self-cleavage is 0.04.

In the case of U9C G22C, the self-cleavage came out at 0.03.

Consider U9C G22U, for which the self-cleavage was 0.02.

Regarding C10A G36A, the self-cleavage is 0.02.

With C10A G36U, the self-cleavage amounted to 0.04.

C10A G36C: the self-cleavage came out at 0.02.

Regarding C10A G21C, the self-cleavage came out at 0.04.

As to C10A G21U, the self-cleavage is 0.04.

On to C10A G21A, for which the self-cleavage stood at 0.08.

For U9C G21A, the self-cleavage stood at 0.04.

As for U9C G21C, the self-cleavage worked out at 0.06.

Consider U9C G21U, for which the self-cleavage turned out to be 0.04.

In the case of U9C A12G, the self-cleavage worked out at 0.04.

With U9C A12C, the self-cleavage is 0.04.

With U9C A12U, the self-cleavage was 0.03.

Turning to U9G A39G, the self-cleavage amounted to 0.08.

Regarding U9G A39C, the self-cleavage worked out at 0.05.

Take C10G A11G: the self-cleavage turned out to be 0.03.

As to C10G A11C, the self-cleavage is 0.02.

In the case of C10G A11U, the self-cleavage came out at 0.04.

For U9C A26G, the self-cleavage came to 0.05.

As to U9C A26U, the self-cleavage is 0.11.

For U9C A26C, the self-cleavage came out at 0.03.

Take C10A U43A: the self-cleavage came out at 0.01.

Regarding C10A U43G, the self-cleavage is 0.

C10A U43C: the self-cleavage was found to be 0.03.

For U9G U20G, the self-cleavage came to 0.06.

Take U9G U20C: the self-cleavage came to 0.05.

In the case of U9G U20A, the self-cleavage worked out at 0.07.

Turning to U9C G17C, the self-cleavage came out at 0.04.

On to U9C G17U, for which the self-cleavage turned out to be 0.04.

Turning to U9C G17A, the self-cleavage turned out to be 0.02.

Take U9C G30A: the self-cleavage was 0.03.

In the case of U9C G30C, the self-cleavage is 0.04.

On to U9C G30U, for which the self-cleavage was found to be 0.02.

Regarding U9C C37U, the self-cleavage was 0.04.

Turning to U9C C37G, the self-cleavage came to 0.01.

For the variant U9C C37A, the self-cleavage was found to be 0.02.

For the variant U9G U32G, the self-cleavage came out at 0.05.

Regarding U9G U32A, the self-cleavage stood at 0.12.

Consider U9G U32C, for which the self-cleavage worked out at 0.05.

In the case of C10A A16C, the self-cleavage was determined as 0.04.

Regarding C10A A16U, the self-cleavage stood at 0.05.

With C10A A16G, the self-cleavage turned out to be 0.07.

For U9C U32G, the self-cleavage came out at 0.03.

For the variant U9C U32C, the self-cleavage amounted to 0.04.

Take U9C U32A: the self-cleavage was 0.02.

With U9G A16G, the self-cleavage is 0.07.

For U9G A16C, the self-cleavage is 0.03.

Regarding U9G A16U, the self-cleavage is 0.14.

For the variant U9C U20A, the self-cleavage was 0.04.

For U9C U20C, the self-cleavage was determined as 0.02.

U9C U20G: the self-cleavage came out at 0.03.

Consider U9G U38C, for which the self-cleavage was found to be 0.09.

For U9G U38A, the self-cleavage worked out at 0.06.

Take U9G U38G: the self-cleavage is 0.01.

For the variant C10A G19U, the self-cleavage was found to be 0.06.

With C10A G19A, the self-cleavage is 0.07.

C10A G19C: the self-cleavage was 0.05.

On to U9C A16C, for which the self-cleavage was determined as 0.02.

In the case of U9C A16G, the self-cleavage is 0.03.

With U9C A16U, the self-cleavage came out at 0.04.

U9C G33A: the self-cleavage was determined as 0.06.

Consider U9C G33U, for which the self-cleavage is 0.03.

For the variant U9C G33C, the self-cleavage came to 0.03.

Regarding U9G C37A, the self-cleavage was 0.22.

As for U9G C37G, the self-cleavage amounted to 0.05.

Consider U9G C37U, for which the self-cleavage came to 0.15.

Regarding U9G C13U, the self-cleavage is 0.11.

For U9G C13A, the self-cleavage came out at 0.19.

For U9G C13G, the self-cleavage was determined as 0.08.

Regarding U9G C18U, the self-cleavage is 0.09.

In the case of U9G C18G, the self-cleavage is 0.04.

For U9G C18A, the self-cleavage stood at 0.07.

For C10A A39U, the self-cleavage was 0.24.

For C10A A39C, the self-cleavage turned out to be 0.05.

In the case of C10A A39G, the self-cleavage turned out to be 0.04.

Take U9C C23U: the self-cleavage came to 0.02.

As to U9C C23G, the self-cleavage was 0.03.

On to U9C C23A, for which the self-cleavage was 0.02.

In the case of U9C C18G, the self-cleavage turned out to be 0.03.

In the case of U9C C18A, the self-cleavage amounted to 0.03.

Turning to U9C C18U, the self-cleavage amounted to 0.01.

Turning to C10A A11C, the self-cleavage was 0.02.

For C10A A11G, the self-cleavage is 0.03.

As for C10A A11U, the self-cleavage was found to be 0.03.

Consider U9G G40U, for which the self-cleavage was determined as 0.08.

U9G G40A: the self-cleavage is 0.08.

With U9G G40C, the self-cleavage was determined as 0.08.

For C10A C45G, the self-cleavage stood at 0.03.

As for C10A C45U, the self-cleavage was determined as 0.07.

For the variant C10A C45A, the self-cleavage was found to be 0.04.

As for U9G C42A, the self-cleavage worked out at 0.08.

For U9G C42G, the self-cleavage stood at 0.06.

U9G C42U: the self-cleavage stood at 0.05.

Regarding C10A U34C, the self-cleavage came out at 0.04.

C10A U34G: the self-cleavage turned out to be 0.04.

For the variant C10A U34A, the self-cleavage was determined as 0.05.
